The target in assay [1] is Endogenous BAFF (human (endogenous in serum, CSF, cord blood)). In words: SEC; cord blood sera in Hepes pH 8.2, 30 mM NaCl, 10 ug/ml BSA; fractions lyophilized; ELISA at pH 5.5 and BAFFR:Fas reporter cells with antibody 2.81. A general note: In gel filtration, larger molecules generally elute earlier.
Assay [2] has the same target. In words: SEC; endogenous BAFF affinity-purified on atacicept from CSF or from serum of a CVID patient, SEC at pH 8.2; ELISA with capture at pH 5.5 and BAFFR:Fas reporter cells.
Assay [3] has the same target. Briefly: SEC; 8-fold concentrated pool of CSF of multiple sclerosis patients at pH 8.2, 30 mM NaCl; also after depletion on anti-APRIL mAb 104; ELISA with capture at pH 5.5 and BAFFR:Fas reporter cells.
Assay [4] shares this target. In words: SEC; BAFFR-deficient human serum on Superdex S200 Increase in Hepes buffer pH 8.2; BAFF activity of fractions read on BCMA:Fas reporter cells; fractions 15-17 pooled, concentrated and run again.
Assay [5] has the same target. Briefly: SEC; adult human sera (normal, CVID, BAFFR-deficient, BTK-deficient) in Hepes pH 8.2, 30 mM NaCl, 10 ug/ml BSA; fractions lyophilized; ELISA at pH 5.5 and BAFFR:Fas reporter cells with antibody 2.81.

Consider Endogenous BAFF (ligand), for which the stoichiometry N (commonly the number of molecules, sites or subunits per partner or assembly) is 3 in assay [1]; 3 in assay [2]; 3 in assay [3]; 2.7 in assay [4]; 3 in assay [5].

Values taken from publication PMC7677505.
